From patent US20200197440A1 (LENTIGEN TECHNOLOGY, published 2020)

B1: CAR construct LTG2099 (hScFv aCD38 CD8 TM 4-1BB CD3 zeta) (other)
chain: QVTLKESGPVLVKPTETLTLTCTFSGFSLSTSGVGVAWIRQPPGKDLEWLALIYWDDDKRYSPSLESRLTITKDTSKNQVALTMSDMDPVDTATYYCARGDYWGRLDYWGQGTLVTVSSGGGGSGGGGSGGGGSDIQLTQSPSSLSASIGDRVTITCQASEDINNYLNWYQQKPGKAPKLLIYDASNLETGVPSRFSGSGSGTDFTFTINSLQPEDIATYYCQQFDNMPLTFGGGTKLEIKAAATTTPAPRPPTPAPTIASQPLSLRPEACRPAAGGAVHTRGLDFACDIYIWAPLAGTCGVLLLSLVITLYCKRGRKKLLYIFKQPFMRPVQTTQEEDGCSCRFPEEEEGGCELRVKFSRSADAPAYQQGQNQLYNELNLGRREEYDVLDKRRGRDPEMGGKPRRKNPQEGLYNELQKDKMAEAYSEIGMKGERRRGKGHDGLYQGLSTATKDTYDALHMQALPPR
notes: Chimeric antigen receptor on transduced human primary T cells
B2: CAR construct LTG2098 (hScFv aCD38 CD8 TM 4-1BB CD3 zeta) (other)
chain: QVQLQQSGPGLVKPSQTLSLTCVISGDSVSSNSAAWNWIRQSPSRGLEWLGRTYYRSKWHNDYAVSVESRIIVNPDTSKNQFSLQLNSVTPEDTAVYYCARDPGYFYGLDVWGQGTMVTVSSGGGGSGGGGSGGGGSNFMLTQPHSVSESPGKTVTIPCTRSSGTIADYYVQWYQQRPDSSPIIVIYDDNQRPSGVPDRFSGSIDSSSNSASLTISGLKTEDEAAYYCQSYDSTNHWVFGGGTKLTVLGAAATTTPAPRPPTPAPTIASQPLSLRPEACRPAAGGAVHTRGLDFACDIYIWAPLAGTCGVLLLSLVITLYCKRGRKKLLYIFKQPFMRPVQTTQEEDGCSCRFPEEEEGGCELRVKFSRSADAPAYQQGQNQLYNELNLGRREEYDVLDKRRGRDPEMGGKPRRKNPQEGLYNELQKDKMAEAYSEIGMKGERRRGKGHDGLYQGLSTATKDTYDALHMQALPPR
notes: as for B1
B3: CAR construct LTG2090 (hScFv aCD38 CD8 TM 4-1BB CD3 zeta) (other)
chain: EVQLVESGGGSVQPGGSLRLSCAASEFTFSSYWMHWVRQAPGKGLEWVAVISYDGAKKYYADSVKGRFTISRDNSKNTLYLQMNSLRAEDTAVYYCARDDGSGGFDYWGQGTLVTVSSGGGGSGGGGSGGGGSDIVMTHTPLSLSVTPGQPASISCKSSQSLLHSDGKTYLYWYLQKPGQPPQLLIYEVSNRFSGVPDRYSGSGSGTDFTLKISRVEAEDVGVYYCMQSIQLPLTFGGGTKLEIKAAATTTPAPRPPTPAPTIASQPLSLRPEACRPAAGGAVHTRGLDFACDIYIWAPLAGTCGVLLLSLVITLYCKRGRKKLLYIFKQPFMRPVQTTQEEDGCSCRFPEEEEGGCELRVKFSRSADAPAYQQGQNQLYNELNLGRREEYDVLDKRRGRDPEMGGKPRRKNPQEGLYNELQKDKMAEAYSEIGMKGERRRGKGHDGLYQGLSTATKDTYDALHMQALPPR
notes: as for B1

These binders were tested against T1, CD38-His peptide (Thermo Fisher Scientific) (UniProt P28907 43-300, limits assumed) (assay: flow cytometry of LV-transduced primary T cells stained with CD38-His, then anti-His PE).
T1 construct: Bought staining reagent, detected with anti-His-PE; also called CD38-His reagent; CD38-His tagged peptide; not shown: His tag

Binder	surface expression level, % CAR T+ (CD38-His staining) [%]
B1	> 65
B2	> 75
B3	> 45

The binders below were run against CD38 on CD38-positive tumor lines RPMI-8226 and MM1.S (UniProt P28907 1-300, limits assumed) (assay: cell-based or functional assay).

Binder	tumor killing of RPMI-8226 at E:T ratio of 1:5 (so in the source) [% tumor killing]
B1	< 10
B2	< 40
B3	< 70
